Measured values as given in patent US9539338B2, “Polymer-based protein engineering methods to rationally tune enzyme activity, pH-dependence and stability” (Carnegie Mellon University, priority 2013, dated 2017).

What was measured:
NS-AAPF-pNA = biological target: T1, NS-AAPF-pNA (Bos taurus, UniProt P00766); experiment: CT and CT conjugate biocatalytic activity, 2.5 to 37.5° C.; format: biochemical
T1 construct: purchased Sigma Aldrich; host or cells: bovine pancreas
Method: N-succinyl-L-Ala-L-Ala-L-Pro-L-Phe-p-nitroanilide was used as a substrate for enzyme bioactivity assays. In a cuvette, 0.1 M sodium phosphate buffer (2820-2970 μL, pH 8.0), substrate (0-150 μL, 6 mg/mL in DMSO (0-500 μM)), and enzyme (30 μL, 0.1 mg enzyme/mL 0.1 M pH 8.0 sodium phosphate buffer (0.04 μM)) were mixed. The rate of the hydrolysis was determined by recording the increase in absorbance at 412 nm for the first 30 seconds after mixing. KM and kcat values were calculated using EnzFitter software when plotting substrate concentration versus initial hydrolysis velocity.
CT conjugate kinetics were examined at a variety of temperatures (2.5° C., 7° C., 16.5° C., 24.5° C., 33° C., and 37.5° C.) to determine the effect of polymer UCST and LCST phase transitions and molecular weight on enzyme kinetics (see FIGS. 11(a)-(c) and Table 16 below).

aprotinin (AP) = biological target: T2, aprotinin (AP) (Bos taurus, UniProt P00974); experiment: Inhibitor binding study with aprotinin; format: biochemical, Bovine; conditions: 25° C.; for Apparent Vmax / KM/Vmax: pH 8.0
T2 construct: purchased Sigma Aldrich; host or cells: Nicotiana (tobacco) for aprotinin; bovine pancreas for chymotrypsin
Method: Apparent KM and Vmax values were calculated using EnzFitter by Michelis-Menten curve fitting of substrate against initial velocity plots. (B) Secondary plots with calculated apparent KM and Vmax values were used to determine inhibition constants of aprotinin towards native chymotrypsin.
FIGS. 23A and B show (A) Substrate/initial velocity plots and (B) secondary plots to determine inhibitor constant for chymotrypsin-pQA200 with aprotinin in 0.1 M sodium phosphate buffer (pH 8) at 25° C. The procedure used was the same as described above for aprotinin and native chymotrypsin.
Enzyme inhibition was assayed by measuring the hydrolytic activities of samples which contained a fixed concentration of protease and varying amounts of inhibitor, including a blank with no inhibitor. Inhibitors and peptide substrate were simultaneously added to the native and conjugate solutions immediately before measuring initial rates. The initial rate of hydrolysis of the peptide substrate was monitored by recording the increase in absorption at 412 nm. To determine dissociation constant of the enzyme-inhibitor complexes (Ki), Vmax app and KM app were determined by non-linear curve fitting (equation for Michaelis-Menten parameters) of plots of initial rate versus substrate concentration using the Enzfitter software. The dissociation constants were calculated from secondary plot of KM app/Vmax app versus initial inhibitor concentration.

[1] = Size measurements during 167 mM HCl (pH 1) incubation; format: physicochemical
Method: CT conjugates (4 μM) and native CT (29 μM) passed through a […] cellulose filter were incubated in 167 mM HCl at 37° C. in 1 mL aliquots. Aliquots were removed from incubation at each specified time point. Hydrodynamic diameter was then determined using a Malvern zetasizer nano-ZS at 25° C. Intensity PSD measurements, averaged over five sample runs at each time point, were used to calculate hydrodynamic diameter (Dh).

Suc-AAPF-pNA = biological target: T3, Suc-AAPF-pNA (Bos taurus, UniProt P00766); experiment: Enzyme activity: hydrolysis of Suc-AAPF-pNA at pH 5-10 (native CT, chymotrypsin-pQA conjugates); format: biochemical; conditions: 0.1 M phosphate buffer
T3 construct: purchased Sigma Aldrich; host or cells: bovine pancreas
Method: N-Succinyl-Ala-Ala-Pro-Phe p-nitroanilide (0 to 50 μL of 9.60 mM in DMSO) was added to sodium phosphate buffer (990 to 940 μL of 100 mM, pH 5-10). Native CT or conjugates solution (10 μL of 4.0 μM) was added to the substrate solution. The initial rate of hydrolysis of the peptide substrate was monitored by recording the increase in absorption at 412 nm using a UV-VIS spectrometer. The Michaelis-Menten parameters (kcat, KM and kcat/KM) were determined by non-linear curve fitting (using the well known Michaelis-Menten kinetics equation, V=Vmax[S]/KM+[S], […] where [E] is enzyme concentration, [S] is substrate concentration, and V is initial rate of the reaction) of plots of initial rate versus substrate concentration using the Enzfitter software.
Enzyme activity (kcat), specificity (KM), and productivity (kcat/KM) values were determined for each of the conjugates and native chymotrypsin at 25° C. in 0.1 M phosphate buffer (pH 5-10). Values were determined by monitoring the enzyme catalyzed hydrolysis of Suc-AAPF-pNA. Enzyme concentration for each of the reactions was 39 nM, with substrate concentrations ranging from 0-700 μM. The reaction was monitored for the first 30 seconds after mixing enzyme and substrate.

α-Chymotrypsin (CT) from bovine pancreas (type II) [Native CT]
Km (NS-AAPF-pNA; 2.5° C., 0.1 M sodium phosphate pH 8.0): 30 ± 5.1 µM | kcat (NS-AAPF-pNA; 2.5° C., pH 8.0): 8.9 ± 0.4 s⁻¹ | kcat (NS-AAPF-pNA; 2.5° C., pH 8.0, listed as native chymotrypsin): 8.9 ± 0.4 s⁻¹ | Km (NS-AAPF-pNA; 7° C., pH 8.0): 29 ± 6.9 µM | kcat (NS-AAPF-pNA; 7° C., pH 8.0): 9.7 ± 0.5 s⁻¹ | kcat (NS-AAPF-pNA; 7° C., pH 8.0, listed as native chymotrypsin): 9.7 ± 0.5 s⁻¹ | Km (NS-AAPF-pNA; 16.5° C., pH 8.0): 37 ± 8.6 µM | kcat (NS-AAPF-pNA; 16.5° C., pH 8.0): 16 ± 0.9 s⁻¹ | kcat (NS-AAPF-pNA; 16.5° C., pH 8.0, listed as native chymotrypsin): 16 ± 0.9 s⁻¹ | Km (NS-AAPF-pNA; 24.5° C., pH 8.0): 51 ± 8.7 µM | kcat (NS-AAPF-pNA; 24.5° C., pH 8.0): 25 ± 1.3 s⁻¹ | kcat (NS-AAPF-pNA; 24.5° C., pH 8.0, listed as native chymotrypsin): 25 ± 1.3 s⁻¹ | Km (NS-AAPF-pNA; 33° C., pH 8.0): 57 ± 5 µM | kcat (NS-AAPF-pNA; 33° C., pH 8.0): 36 ± 1.3 s⁻¹ | kcat (NS-AAPF-pNA; 33° C., pH 8.0, listed as native chymotrypsin): 36 ± 1.3 s⁻¹ | Km (NS-AAPF-pNA; 37.5° C., pH 8.0): 59 ± 6.9 µM | kcat (NS-AAPF-pNA; 37.5° C., pH 8.0): 47 ± 1.7 s⁻¹ | kcat (NS-AAPF-pNA; 37.5° C., pH 8.0, listed as native chymotrypsin): 47 ± 1.7 s⁻¹ | Apparent Vmax (aprotinin (AP); aprotinin [I]0 0 mM): 1.13 mM/s | KM/Vmax (aprotinin (AP); aprotinin [I]0 0 mM): 76.3 s⁻¹ | Apparent Vmax (aprotinin (AP); aprotinin [I]0 0.098 mM): 1.17 mM/s | KM/Vmax (aprotinin (AP); aprotinin [I]0 0.098 mM): 149.2 s⁻¹ | Apparent Vmax (aprotinin (AP); aprotinin [I]0 0.196 mM): 1.14 mM/s | KM/Vmax (aprotinin (AP); aprotinin [I]0 0.196 mM): 242.8 s⁻¹ | Apparent Vmax (aprotinin (AP); aprotinin [I]0 0.294 mM): 1.19 mM/s | KM/Vmax (aprotinin (AP); aprotinin [I]0 0.294 mM): 314.3 s⁻¹ | Apparent Vmax (aprotinin (AP); aprotinin [I]0 0.392 mM): 1.04 mM/s | KM/Vmax (aprotinin (AP); aprotinin [I]0 0.392 mM): 431.6 s⁻¹ | Apparent Vmax (aprotinin (AP); aprotinin [I]0 0.490 mM): 1.13 mM/s | KM/Vmax (aprotinin (AP); aprotinin [I]0 0.490 mM): 569.45 s⁻¹ | Ki (aprotinin (AP); inhibitor aprotinin): 56.3 nM | increase of hydrodynamic diameter (Dh) ([1]; 37° C., after 2 hours): 9 fold | hydrodynamic diameter Dh at time zero ([1]; time zero): 6.3±0.5 nm | Km (Suc-AAPF-pNA; pH 5.0, 25° C.): 184 µM | kcat (Suc-AAPF-pNA; pH 5.0, 25° C.): 2.85 s⁻¹ | Km (Suc-AAPF-pNA; pH 6.0, 25° C.): 171 µM | kcat (Suc-AAPF-pNA; pH 6.0, 25° C.): 14.80 s⁻¹ | Km (Suc-AAPF-pNA; pH 7.0, 25° C.): 94.3 µM | kcat (Suc-AAPF-pNA; pH 7.0, 25° C.): 26.81 s⁻¹ | Km (Suc-AAPF-pNA; pH 8.0, 25° C.): 82.6 µM | kcat (Suc-AAPF-pNA; pH 8.0, 25° C.): 32.00 s⁻¹ | Km (Suc-AAPF-pNA; pH 9.0, 25° C.): 123 µM | kcat (Suc-AAPF-pNA; pH 9.0, 25° C.): 33.30 s⁻¹ | Km (Suc-AAPF-pNA; pH 10.0, 25° C.): 336 µM | kcat (Suc-AAPF-pNA; pH 10.0, 25° C.): 36.62 s⁻¹
